Data published in patent publication US12226490B2, “Anti-ROR1 antibody conjugates, compositions comprising anti ROR1 antibody conjugates, and methods of making and using anti-ROR1 antibody conjugates preliminary class” (Sutro Biopharma, Inc., priority 2022, dated 2025).

B1: Conjugate 4 (conjugate)
heavy: MEVQLVESGGGLVQPGGSLRLSCAASGFNISDYDIHWVRQAPGKGLEWVGGIDPADGSTDYADSVKGRFTISADTSKNTAYLQMNSLRAEDTAVYYCARDYGVYDYWGQGTLVTVSSASTKGPSVFPLAPSSKSTSGGTAALGCLVKDYFPEPVTVSWNSGALTSGVHTFPAVLQSSGLSLSSVVTVPSSSLGTQTYICNVNHKPSNTKVDKKVEPKSCDKTHTCPPCPAPELLGGPSVFLFPPKPKDTLMISRTPEVTCVVVDVSHEDPEVKFNWYVDGVEVHNAKTKPREEQYNSTYRVVSVLTVLHQDWLNGKEYKCKVSNKALPAPIEKTISKAKGQPREPQVYTLPPSREEMTKNQVSLTCLVKGFYPSDIAVEWESNGQPENNYKTTPPVLDSDGSFLYSKLTVDKSRWQQGNVFSCSVMHEALHNHYTQKSLSLSPGK
light: MDIQMTQSPSSLSASVGDRVTITCRASQDVNTAVAWYQQKPGAPKLLIYSASFLYSGVPSRFSGSRSGTDFTLTISSLQPEDFATYYCQQHYTTPPTFGQGTKVEIKRTVAAPSVFIFPPSDEQLKSGTASVVCLLNNFYPREAKVQWKVDNALQSGNSQSVTEQDSKDSTYSLSSTLTLSKADYEKHKVYACEVTHQGLSSPVTKSFNRGEC
B2: SRP2196-C01 (antibody, V domains shown)
VH: EVQLVESGGGLVQPGGSLRLSCAASGFNIIGYYIHWVRQAPGKGLEWVGSITPLSGATSKADSVKGRFTISADTSKNTAYLQMNSLRAEDTAVYYCARDSRRYIRSWDYWGQGTLVTVSS
VL: QAVVTQESALTTSPGETVTLTCRSSTGAVTTSNYANWVQEKPDHLFTGLIGGTNKRAPGVPARFSGSLIGDKAALTITGAQTEDEAIYFCALWYSNLWVFGGGTKLTVL
B3: SRP2196-C02 (antibody, V domains shown)
VH: EVQLVESGGGLVQPGGSLRLSCAASGFNITGYHIHWVRQAPGKGLEWVGFISPNSGWTYSADSVKGRFTISADTSKNTAYLQMNSLRAEDTAVYYCARDSRRYVRPFDYWGQGTLVTVSS
VL: QAVVTQESALTTSPGETVTLTCRSSTGAVTTSNYANWVQEKPDHLFTGLIGGTNKRAPGVPARFSGSLIGDKAALTITGAQTEDEAIYFCALWYSNLWVFGGGTKLTVL
B4: SRP2196-C03 (antibody, V domains shown)
VH: EVQLVESGGGLVQPGGSLRLSCAASGFNITGYYIHWVRQAPGKGLEWVGQISPNSGSTYSADSVKGRFTISADTSKNTAYLQMSSLRAEDTAVYYCARDSRRYVLSWDYWGQGTLVTVSS
VL: QAVVTQESALTTSPGETVTLTCRSSTGAVTTSNYANWVQEKPDHLFTGLIGGTNKRAPGVPARFSGSLIGDKAALTITGAQTEDEAIYFCALWYSNLWVFGGGTKLTVL
B5: SRP2196-C04 (antibody, V domains shown)
VH: EVQLVESGGGLVQPGGSLRLSCAASGFNITGYYIHWVRQAPGKGLEWVGFIAPLSGSTHNADSVKGRFTISADTSKNTAYLQMNSLRAEDTAVYYCARESRRYVNPWDYWGQGTLVTVSS
VL: QAVVTQESALTTSPGETVTLTCRSSTGAVTTSNYANWVQEKPDHLFTGLIGGTNKRAPGVPARFSGSLIGDKAALTITGAQTEDEAIYFCALWYSNLWVFGGGTKLTVL

Experiments:
[1] = test system: ROR1 positive Ntera-2 cell; test: In vitro cell killing of ROR1 ADCs, ROR1 positive cells (Cell Titer-Glo, 120 hours); assay type: cell-based, human; conditions: Table 13
Description: (§1) Ntera-2, MDA-MB-231, MCF7, HCT116 and Mino cells were obtained from ATCC. HCT116-hRor1-D02 clone was generated by transfecting HCT116 cells with a plasmid containing human Ror1 cDNA sequence and selected for highest stable expression of hRor1 on the cell surface. MDA-MB-231, MCF7, HCT116 and HCT116-Ror1 cell were maintained in Ham's F-12 high glucose DMEM (50-50) (Cellgro-Mediatech; Manassas, VA) supplemented with 10% heat-inactivated fetal bovine serum (Hyclone; Thermo Scientific; Waltham, MA), 1% Penicillin/Streptomycin (Cellgro-Mediatech; Manassas, VA) and 2 mmol/L-glutamax (Life Technology; Carlsbad, CA). Mino cells were maintained in RPMI-1640 medium (Cellgro-Mediatech; Manassas, VA) supplemented with 20% heat-inactivated fetal bovine serum (Hyclone; Thermo Scientific; Waltham, MA), 1% Penicillin/Streptomycin (Cellgro-Mediatech; Manassas, VA) and 2 mmol/L-glutamax (Life Technology; Carlsbad, CA).
(§2) Anti-ROR1 antibody was conjugated to different linker-warheads described herein at different DARs and the cell killing activity of the ADCs were evaluated on ROR1 positive Ntera-2 cell and ROR1 negative MCF7 cells.
(§3) Ntera-2 or MCF7 cell at 625 cells/25 μL were seeded in a 384-well flat bottom white polystyrene plate one day before the assay start. ADCs were formulated at 2× starting concentration. Filter sterilized samples were serial diluted (1:3) under sterile conditions and added onto cells in triplicates. Plates were cultured at 37° C. in a CO2 incubator for 120 hours. […] Relative luminescence was measured on an ENVISION® plate reader (Perkin-Elmer; Waltham, MA). Relative luminescence readings were converted to % viability using untreated cells as controls. […]
(§4) To evaluate if the cell killing activity of anti-ROR1 ADCs is dependent on antibody binding to ROR1 expressed on cell surface, the same linker-warheads (LP3, LP4) were conjugated to an anti-GFP antibody and the cell killing of the anti-ROR1 and anti-GFP ADCs were evaluated in cell killing assays on ROR1 positive Ntera-2 cell and ROR1 negative MCF7 cells.

ROR1 negative MCF7 cells = test: In vitro cell killing of ROR1 ADCs, ROR1 negative cells (Cell Titer-Glo, 120 hours); assay type: cell-based, human; conditions: Table 13
Description: as §1, §2, §3, §4

MDA-MB-231 tumor = test: MDA-MB-231 TNBC xenograft model; assay type: in vivo, SCID/beige mice
Method: (§5) The activities of ROR1-targeted ADCs described herein were examined in a MDA-MB-231 TNBC xenograft model. Briefly, SCID/beige mice were implanted subcutaneously with 5×10^6 MDA-MB-231 tumor cells in the mammary fat pad and randomized and enrolled into the study 7 days post implant, with tumor sizes around 130 mm^3. Tumor-bearing mice were administered four weekly doses (qw×4) of the test articles at doses ranging from 2 mg/kg to 5 mg/kg. All treatments were well tolerated with normal body weight gain throughout the course of the study.
as §5, with “SCID/beige” for “The activities of ROR1-targeted ADCs described herein were examined in a MDA-MB-231 TNBC xenograft model. Briefly, SCID/beige”
as §5, with “SCID/beige” for “The activities of ROR1-targeted ADCs described herein were examined in a MDA-MB-231 TNBC xenograft model. Briefly, SCID/beige”, “three” for “four”, “(qw×3)” for “(qw×4)”, “study. […]” for “study.”

human ROR1-Fz = target: T1, human ROR1-Fz (Homo sapiens, UniProt Q01973); test: Biacore off-rate and kinetic analysis, ROR1 frizzled domain; assay type: binding; conditions: Table 11 (SP34 light chain)
T1 construct: Frizzled (Fz, residues 165-305); HIS6 (C); purchased Acro Biosystems; host or cells: HEK293
T1 sequence (Q01973 165-305): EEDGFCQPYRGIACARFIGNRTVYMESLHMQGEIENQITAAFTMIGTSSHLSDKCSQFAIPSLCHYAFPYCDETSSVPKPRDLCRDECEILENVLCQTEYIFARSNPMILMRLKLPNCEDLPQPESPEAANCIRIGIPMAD
Method: Anti-Fc polyclonal antibodies were immobilized onto a CM5 chip (GE Life Sciences) using amine coupling chemistry (from Amine Coupling Kit, GE Life Sciences). The immobilization steps were carried out at a flow rate of 25 μL/min in 1×HBS-EP+ buffer (GE Life Sciences; 10× Stock diluted before use). The sensor surfaces were activated for 7 min with a mixture of NHS (0.05 M) and EDC (0.2 M). The Anti-Fc antibodies were injected over all 4 flow cells at a concentration of 25 ug/ml in 10 mM sodium acetate, pH 4.5, for 7 min. Ethanolamine (1 M, pH 8.5) was injected for 7 min to block any remaining activated groups. An average of 12,000 response units (RU) of capture antibody was immobilized on each flow cell.
Off-rate and kinetic binding experiments were performed at 25° C. using 1×HBS-EP+ buffer. Test and control antibodies were injected over the anti-Fc surface at concentrations of 5-10 μg/mL for 12 seconds at a flow rate of 10 μL/min on flow cells 2, 3 and 4, followed by a buffer wash for 30 seconds at the same flow rate. Kinetic characterization of antibody samples was carried out with a range of antigen concentrations from 1-100 nM and 1 injection of 0 nM antigen (for example, 100, 50, 25, 6.25, 1.56 and 0 nM). After capturing ligand (antibody) on the anti-Fc surface, the analyte (hROR1, Fz or Kr domains, Acro Biosystems, Delaware) was bound for 180 seconds, followed by a 600 second dissociation phase at a flow rate of 50 μL/min. Between each ligand capture and analyte binding cycle, regeneration was carried out using 2 injections of 10 mM Glycine pH 2.0 for 30 seconds at 30 μL/min, followed by a 30 second buffer wash step.
The data was fit with the Biacore T200 Evaluation software, using a 1-1 Langmuir binding model. KD (affinity, nM) was determined as a ratio of the kinetic rate constants calculated from the fits of the association and dissociation phases.
For anti-CD3-LC-containing IgGs that had detectable ROR1-binding in ELISA (1944-A07 and 1987-C05 variants), those antibodies were further tested for binding by surface plasmon resonance (SPR). Binding kinetics were assessed to the ROR1-frizzled domain (hROR1-Fz) or the ROR1-extracellular domain (hROR1) for 1944-A07 and 1987-C05 variants, respectively. Briefly, anti-ROR1 antibodies were captured via anti-human Fc polyclonal antibodies immobilized to a CM5 chip, and ROR1 recombinant proteins were flowed across the surface to assess binding kinetics. hROR1 or hROR1-Fz domain (Acro Biosystems, Delaware) binding was tested at 100, 50, 25, 6.25, 1.5625 nM. The data was fit with the Biacore™ T200 Evaluation software, using a 1-1 Langmuir binding model. KD (affinity, nM) was determined as a ratio of the kinetic rate constants calculated from the fits of the association and dissociation phases.

[2] = Differential scanning fluorimetry (protein thermal shift; TM1 Fc, TM2 Fab); assay type: physicochemical; conditions: melting temperature of the Fab domain; Table 11
Method: A protein thermal shift assay was carried out by mixing the protein to be assayed with an environmentally sensitive dye (SYPRO Orange, Life Technologies Cat #S-6650) in a phosphate buffered solution (PBS), and monitoring the fluorescence of the mixture in real time as it underwent controlled thermal denaturation. Protein solutions between 0.2-2 mg/mL were mixed at a 1-1 volumetric ratio with a 1-500 PBS-diluted solution of SYPRO Orange (SYPRO Orange stock dye is 5000× in DMSO). 10 μL aliquots of the protein-dye mixture were dispensed in quadruplicate in a 384-well microplate (Bio-Rad Cat #MSP-3852), and the plate was sealed with an optically clear sealing film (Bio-Rad Cat #MSB-1001) and placed in a 384-well plate real-time thermocycler (Bio-Rad CFX384 Real Time System). The protein-dye mixture was heated from 25° C. to 95° C., at increments of 0.1° C. per cycle (˜1.5° C. per minute), allowing 3 seconds of equilibration at each temperature before taking a fluorescence measurement. At the end of the experiment, the transition melting temperatures (TM1 and TM2) were determined using the Bio-Rad CFX manager software. TM1 represents the melting temperature of the Fc domain. TM2 represents the melting temperature of the Fab domain.
For the thermal stability of an antibody, the first melting peak (Tm1) coincides with the unfolding of the CH2 domain (FC stability), while the second melting peak (Tm2) occurs upon unfolding of the Fab domain.

Row | Molecule | NTERA-2 Span [1] [%] | MCF-7 Span (ROR1 negative MCF7 cells) [%] | TGI (MDA-MB-231 tumor; Example 20, day 42, 2 mg/kg qw×4) [%] | TGI (MDA-MB-231 tumor; Example 21, day 43, 5 mg/kg qw×4) [%] | Biacore human ROR1-Fz ka (human ROR1-Fz) [M⁻¹ s⁻¹] | Biacore human ROR1-Fz kd (human ROR1-Fz) [s⁻¹] | TM2 [2] [°C]
1 | CC[C@@]1(O)C(=O)OCc2c1cc1n(c2=O)Cc2c-1nc1cc(F)c(C)c3c1c2[C@@H](NC(=O)CO)CC3 [Dxd] | 99 | 63 | – | – | – | – | –
2 | COc1cccc2c1C(=O)c1c(O)c3c(c(O)c1C2=O)C[C@@](O)(C(=O)NCCN)C[C@@H]3O[C@H]1C[C@H]2[C@H](O[C@@H]3[C@@H](OC)OCCN32)[C@H](C)O1 [PNU-EDA] | 99 | 85 | – | – | – | – | –
3 | B1 | – | – | 36 | 23 | – | – | –
4 | B2 | – | – | – | – | 125000 | 0.000457 | 70
5 | B3 | – | – | – | – | 119000 | 0.00036 | 67
6 | B4 | – | – | – | – | 143000 | 0.000461 | 69
7 | B5 | – | – | – | – | 131000 | 0.000704 | 70
